Data as given in patent publication US20180125988.

Columns and labels:
[1] = target: T1, AC1254 (CCD1-BSRS1-AE713)
T1 chain: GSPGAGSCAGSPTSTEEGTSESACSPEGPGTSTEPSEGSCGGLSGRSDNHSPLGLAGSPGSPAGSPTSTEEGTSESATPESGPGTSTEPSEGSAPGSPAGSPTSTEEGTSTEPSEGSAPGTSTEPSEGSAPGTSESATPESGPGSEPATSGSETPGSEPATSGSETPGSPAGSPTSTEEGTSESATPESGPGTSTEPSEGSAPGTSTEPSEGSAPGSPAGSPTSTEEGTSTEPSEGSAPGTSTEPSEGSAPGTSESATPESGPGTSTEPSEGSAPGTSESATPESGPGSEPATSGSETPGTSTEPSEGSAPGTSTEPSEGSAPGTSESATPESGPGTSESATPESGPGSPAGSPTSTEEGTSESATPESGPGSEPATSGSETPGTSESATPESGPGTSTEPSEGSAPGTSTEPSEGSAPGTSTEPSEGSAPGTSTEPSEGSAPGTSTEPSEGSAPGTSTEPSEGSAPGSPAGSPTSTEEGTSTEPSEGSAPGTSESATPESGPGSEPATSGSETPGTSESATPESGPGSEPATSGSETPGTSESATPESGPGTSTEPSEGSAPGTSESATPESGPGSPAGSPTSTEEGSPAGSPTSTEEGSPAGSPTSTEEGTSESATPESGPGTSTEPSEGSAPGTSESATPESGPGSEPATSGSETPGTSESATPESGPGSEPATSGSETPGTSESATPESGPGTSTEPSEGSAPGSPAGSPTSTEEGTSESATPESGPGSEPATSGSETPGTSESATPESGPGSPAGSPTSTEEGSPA

XTEN_AE864 = target: T2, XTEN_AE864
T2 chain: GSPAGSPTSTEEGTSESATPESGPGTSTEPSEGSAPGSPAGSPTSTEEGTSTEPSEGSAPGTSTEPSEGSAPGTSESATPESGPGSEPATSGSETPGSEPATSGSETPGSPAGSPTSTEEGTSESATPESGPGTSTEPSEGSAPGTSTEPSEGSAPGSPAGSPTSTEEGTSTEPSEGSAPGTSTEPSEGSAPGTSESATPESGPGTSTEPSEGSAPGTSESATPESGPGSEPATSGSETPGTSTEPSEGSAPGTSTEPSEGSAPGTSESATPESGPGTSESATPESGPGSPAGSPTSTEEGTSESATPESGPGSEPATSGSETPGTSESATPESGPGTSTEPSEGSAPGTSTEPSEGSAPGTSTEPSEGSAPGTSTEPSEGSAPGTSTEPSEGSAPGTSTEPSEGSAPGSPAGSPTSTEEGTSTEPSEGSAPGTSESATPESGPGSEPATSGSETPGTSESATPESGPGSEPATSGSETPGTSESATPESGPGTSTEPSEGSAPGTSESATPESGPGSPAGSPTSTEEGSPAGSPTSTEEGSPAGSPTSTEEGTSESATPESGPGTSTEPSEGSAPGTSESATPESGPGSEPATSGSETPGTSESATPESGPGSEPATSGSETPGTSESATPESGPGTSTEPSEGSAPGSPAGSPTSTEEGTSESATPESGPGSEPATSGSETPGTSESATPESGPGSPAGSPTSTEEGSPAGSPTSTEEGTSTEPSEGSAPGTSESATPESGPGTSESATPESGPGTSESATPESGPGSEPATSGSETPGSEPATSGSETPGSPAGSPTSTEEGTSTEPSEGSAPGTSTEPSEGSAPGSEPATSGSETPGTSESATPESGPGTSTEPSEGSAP

B1: recombinant mouse MMP-9 (protein)
chain: FQTFKGLKWDHHNITYWIQNYSEDLPRDMIDDAFARAFAVWGEVAPLTFTRVYGPEADIVIQFGVAEHGDGYPFDGKDGLLAHAFPPGAGVQGDAHFDDDELWSLGKGVVIPTYYGNSNGAPCHFPFTFEGRSYSACTTDGRNDGTPWCSTTADYDKDGKFGFCPSERLYTEHGNGEGKPCVFPFIFEGRSYSACTTKGRSDGYRWCATTANYDQDKLYGFCPTRVDATVVGGNSAGELCVFPFVFLGKQYSSCTSDGRRDGRLWCATTSNFDTDKKWGFCPDQGYSLFLVAAHEFGHALGLDHSSVPEALMYPLYSYLEGFPLNKDDIDGIQYLYGRGSKPDPRPPATTTTEPQPTAPPTMCPTIPPTAYPTVGPTVGPTGAPSPGPTSSPSPGPTGAPSPGPTAPPTAGSSEASTESLSPADNPCNVDVFDAIAEIQGALHFFKDGWYWKFLNHRGSPLQGPFLTARTWPALPATLDSAFEDPQTKRVFFFSGRQMWVYTGKTVLGPRSLDKLGLGPEVTHVSGLLPRRLGKALLFSKGRVWRFDLKSQKVDPQSVIRVDKEFSGVPWNSHDIFQYQDKAYFCHGKFFWRVSFQNEVNKVDHEVNQVDDVGYVTYDLLQCP
For B1, the “proteolytic cleavage at the PCM (SDS-PAGE, C4 RP-HPLC); enzyme:substrate 1:6711, 2 h, 37 C” value [1] was “all proteases tested here cleaved the construct as intended, with varying degree of catalytic efficiency”.

B2: recombinant human matriptase (protein)
chain: VVGGTDADEGEWPWQVSLHALGQGHICGASLISPNWLVSAAHCYIDDRGFRYSDPTQWTAFLGLHDQSQRSAPGVQERRLKRIISHPFFNDFTFDYDIALLELEKPAEYSSMVRPICLPDASHVFPAGKAIWVTGWGHTQYGGTGALILQKGEIRVINQTTCENLLPQQITPRMMCVGFLSGGVDSCQGDSGGPLSSVEADGRIFQAGVVSWGDGCAQRNKPGVYTRLPLFRDWIKENTGV
With B2 the “proteolytic cleavage at the PCM (SDS-PAGE, C4 RP-HPLC); enzyme:substrate 1:12.5, 2 h, 37 C” value [1] was “all proteases tested here cleaved the construct as intended, with varying degree of catalytic efficiency”.

B3: recombinant human MMP-7 (protein)
chain: YSLFPNSPKWTSKVVTYRIVSYTRDLPHITVDRLVSKALNMWGKEIPLHFRKVVWGTADIMIGFARGAHGDSYPFDGPGNTLAHAFAPGTGLGGDAHFDEDERWTDGSSLGINFLYAATHELGHSLGMGHSSDPNAVMYPTYGNGDPQNFKLSQDDIKGIQKLYGKRSNSRKK
B3 was tested, and the “proteolytic cleavage at the PCM (SDS-PAGE, C4 RP-HPLC); enzyme:substrate 1:200, 2 h, 37 C” value [1] was “all proteases tested here cleaved the construct as intended, with varying degree of catalytic efficiency”.

B4: human neutrophil elastase (protein)
chain: IVGGRRARPHAWPFMVSLQLRGGHFCGATLIAPNFVMSAAHCVANVNVRAVRVVLGAHNLSRREPTRQVFAVQRIFENGYDPVNLLNDIVILQLNGSATINANVQVAQLPAQGRRLGNGVQCLAMGWGLLGRNRGIASVLQELNVTVVTSLCRRSNVCTLVRGRQAGVCFGDSGSPLVCNGLIHGIASFVRGGCASGLYPDAFAPVAQFVNWIDSIIQ
With B4 the “proteolytic degradation (SDS-PAGE), elastase:XTEN 1:100, 2 h, 37 C” value (XTEN_AE864) was “XTEN_AE864 was completely digested by neutrophil elastase at the 1:100 molar ratio” and the “proteolytic degradation (SDS-PAGE), elastase:XTEN 1:1000, 2 h, 37 C” value (XTEN_AE864) was “Partial degradation was observed for XTEN_AE864 when incubating with neutrophil elastase at the 1:1000 molar ratio”.
